# Experimental data from patent US10772909B2, “System and method for insulin-mimetic of cartilage, bone, or osteochondral repair and piezoelectric composite scaffold” (New Jersey Institute of Technology, priority 2016, dated 2020).
# System: PBMCs
# Assay: PBMC proliferation assay (3H-TdR incorporation)
# Assay type: cell-based, human
# Conditions: positive control, 1% PHA
# Excerpt: Peripheral blood was obtained from four healthy subjects, two males and two females (ages 18-30 years old). Peripheral blood mononuclear cells (PBMCs) were isolated by Ficoll Hypaque (Sigma-Aldrich) gradient separation. Human MSCs were obtained from human bone marrow aspirates (Lonza, Walkersville, Md., USA) from four healthy subjects, two males and two females, ages 18-30 years old, according to previously published protocols and cryopreserved before use. Human MSCs were characterized for the expression of surface markers CD29, CD44, CD73, CD90, and CD105 and lack expression of CD14, CD34 and CD45 as determined by flow cytometry. The differentiation potency was determined by the differentiation of MSCs into osteoblasts, adipocytes and chondrocytes in vitro [32,33]. […]
# The cytotoxicity of Na2WO4 was examined using PBMCs. Cell proliferation was measured using tritiated thymidine (^3H-TdR) incorporation as described in Kapoor et al.. […]
# After 16 h, the cells were harvested on glass fiber filters (Cambridge Technology, Inc.) using a cell harvester (EMD Millipore). […] The radioactive incorporation of ^3H-TdR in the cells was measured using a liquid scintillation counter (Beckman; Fullerton, Calif., USA). The stimulation index (SI) was calculated as disintegration per minute (dpm) of treated group/dpm of unstimulated PBMCs (0 mM).
substance,measurement,value
phytohemagglutinin [PHA],stimulation index (SI),11.5±1.2
